Substrate in the data set: O=C(O)c1cc(O)c(O)c(O)c1
The data set is described as follows: HPLC product assay, steady-state kinetics. The class given is biochemical, Punica granatum. Conditions: UDP-glucose co-substrate (0.6 mM in standard assay), 50 mM MES pH 5.5, 3 mM 2-mercaptoethanol, 30 °C, gallic acid 30-500 μM.

B1: PgUGT72BD1 (Punica granatum) (protein)
chain: MAQVSTKPHVALFASPGIGHLIPVLQLGERFVSRHNFVVTVFVVVTDAATAESQLKQQSSYKNLLNVVLLPPVDLTSLTNKPLAILSQLVLIVRQSLPDLRSAIASMKSRPTALIVDLFGTEAFAIADEFHMLKYEFFTTNAWFLALTLYAPHVDREHEDDHILRHMPLHIPGCASILYEDTVDVYTDRNDKLLHDDYVRIGRRLAEADGILINTWESLEPKTLQALRDPKAFGRFSQVRILPIGPLVSGFQSFGSSQPKDDILQWLDDQPTESVLYVSFGSGGTLSADQLTELAWGLEQSQHRFIWVVRPPQENSACGAYFEQAKRADGTPEYLPDGFVTRTQKLGLVVPMWAPQREILAHPSIGGFLSHCGWNSTLESLINGVPLIAWPLYAEQTMNATMLTDQLGIAARSRELMPNGVLGRHEIEKMVRTVMNKEDAKGETIRARSQDLKRTALLAVAEGGSSYAALSQVAQECKIGLVGLKQRARGA
notes: codon-optimized ORF in pET28a, His-tagged, E. coli BL21(DE3), Ni-NTA purified; no signal peptide detected
Usually Km stands for the concentration of substrate that gives half-maximal velocity. Turning to B1, the Km came out at 190 ± 70 µM and the kcat entry is reported as “(2.83 ± 0.5) × 10^−3 s^−1”.

For the origin of these results see PMC6838055, “Effective genome editing and identification of a regiospecific gallic acid 4-O-glycosyltransferase in pomegranate (Punica granatum L.)” (Horticulture Research, 2019).
